Measured values reported in patent publication US20080102477.

Target: T1, BubR1 (amino acids 1-514) GST-fusion protein, O60566
T1 chain: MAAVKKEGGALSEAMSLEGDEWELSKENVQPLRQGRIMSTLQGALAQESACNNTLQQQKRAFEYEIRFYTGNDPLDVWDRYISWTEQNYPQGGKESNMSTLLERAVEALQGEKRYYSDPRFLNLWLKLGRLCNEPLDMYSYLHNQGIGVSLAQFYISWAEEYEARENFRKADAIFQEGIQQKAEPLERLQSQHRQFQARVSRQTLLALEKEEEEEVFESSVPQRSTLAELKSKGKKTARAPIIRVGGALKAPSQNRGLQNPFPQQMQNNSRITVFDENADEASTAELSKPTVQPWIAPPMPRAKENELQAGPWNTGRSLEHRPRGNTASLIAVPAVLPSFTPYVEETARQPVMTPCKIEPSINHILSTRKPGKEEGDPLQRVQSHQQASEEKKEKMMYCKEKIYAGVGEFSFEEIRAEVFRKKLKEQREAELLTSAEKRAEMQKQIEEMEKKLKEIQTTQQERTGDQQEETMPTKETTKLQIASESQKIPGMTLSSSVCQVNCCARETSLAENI

B1: PCAF (amino acids 352-832) GST-fusion protein (protein)
chain: MLEEEVYSQNSPIWDQDFLSASSRTSQLGIQTVINPPPVAGTISYNSTSSSLEQPNAGSSSPACKASSGLEANPGEKRKMTDSHVLEEAKKPRVMGDIPMELINEVMSTITDPAAMLGPETNFLSAHSARDEAARLEERRGVIEFHVVGNSLNQKPNKKILMWLVGLQNVFSHQLPRMPKEYITRLVFDPKHKTLALIKDGRVIGGICFRMFPSQGFTEIVFCAVTSNEQVKGYGTHLMNHLKEYHIKHDILNFLTYADEYAIGYFKKQGFSKEIKIPKTKYVGYIKDYEGATLMGCELNPRIPYTEFSVIIKKQKEIIKKLIERKQAQIRKVYPGLSCFKDGVRQIPIESIPGIRETGWKPSGKEKSKEPRDPDQLYSTLKSILQQVKSHQSAWPFMEPVKRTEAPGYYEVIRFPMDLKTMSERLKNRYYVSKKLFMADLQRVFTNCKEYNPPESEYYKCANILEKFFFSKIKEAGLIDK
- in vitro acetylation assay (Western blot with anti-acetyl lysine antibodies; MALDI-MS and MS/MS of pepsin peptides): the appearance of a 42 Da acetylation peak in the presence of active PCAF (PCAF 352-832) confirmed that lysine 250 (K250) is the acetylation site of BubR1
